The record followed here is patent US20160115234A1 (Biogen, published 2016).

First the molecules themselves.
B1: 28F4 (antibody, V domains shown)
VH: EVQLVESGGDLVKPGGSLKLSCAASGFTFSNYGMSWVRQTPDKRLEWVATISSGGTYTYYPDSVKGQFTIFRDNAKNTLYLQMSSLKSEDTAMYYCTRRDYDYEGFAYWGQGTLVTVS
VL: DIVLTQSPATLSVTPGDSVSLSCRASQSISNNLHWYQQKSHESPRLLIKYASHSISGIPSRFSGSGSGTDFTLSINSVETEDFGMYFCQQSNNWPFTFGSGTKLEIKR
notes: Mouse hybridoma monoclonal tested as supernatant
B2: 18F7 (antibody, V domains shown)
VH: QVQLKESGPGLVAPSQSLSITCTVSGFSLTSYGVSWVRQPPGKGLEWLGIIWGDGSTNYHSVLKSRLSISKDNSKSQVFLKLNSLQTDDTATYYCAKQDFDVWGAGTTVTVSS
VL: DVQMIQSPFSLSASLGDIVTMTCQASQGTSINLNWFQQKPGKAPKLLIYGVSNLEDGVPSRFSGSRYGTDFTLTIGSLEDEDMATYFCLQHSYLPYTFGGGTKLEIKR
notes: as for B1
B3: Recombinant FVIIa (enzyme)
chain 1: ANAFLEELRPGSLERECKEEQCSFEEAREIFKDAERTKLFWISYSDGDQCASSPCQNGGSCKDQLQSYICFCLPAFEGRNCETHKDDQLICVNENGGCEQYCSDHTGTKRSCRCHEGYSLLADGVSCTPTVEYPCGKIPILEKRNASKPQGR
chain 2: IVGGKVCPKGECPWQVLLLVNGAQLCGGTLINTIWVVSAAHCFDKIKNWRNLIAVLGEHDLSEHDGDEQSRRVAQVIIPSTYVPGTTNHDIALLRLHQPVVLTDHVVPLCLPERTFSERTLAFVRFSLVSGWGQLLDRGATALELMVLNVPRLMTQDCLQQSRKVGDSPNITEYMFCAGYSDGSKDSCKGDSGGPHATHYRGTWYLTGIVSWGQGCATVGHFGVYTRVSQYIEWLQKLMRSEPRPGVLLRAPFP
notes: domain: light chain of FVIIa;domain: heavy chain of FVIIa; Untargeted control; also called rFVIIa; recombinant FVIIa alone (no targeting moiety)
B4: 1H6 (antibody, V domains shown)
VH: QVQLQQSGAELVRPGTSVKVSCKASGYAFTNYLIEWVKQRPGQGLEWIGVINPGSGGTNYNEKFKGKATLTADKSSSTAYMHLSSLTSDDSAVYFCARGRYEWYFDVWGAGTTVTVSS
VL: DIQMTQTTSSLSASLGDRVTISCRASQDITNYLNWYQRKPDGTVKLLIYYTSRLHSGVPSRFSGSGSGTDYSLTISNLEQEDIATYFCQQGYTLPYTFGGGTKLEIKR
notes: as for B1
B5: 12B2 (antibody, V domains shown)
VH: QVQLQQSGAELTKPGASVKISCKATGYTFSSYWIEWVKQRPGHGLEWIGEILPGSGITKYNDKFKGKATFTADTSSNTAYMQLSSLTSEDSAVYSCARLISYYYAMDYWGQGTSVTVSS
VL: B4 VL with T30S, R38Q, Y92N, Y96P
notes: as for B1
B6: 38A8 (antibody, V domains shown)
VH: B4 VH with V37I, H82Q
VL: B4 VL with T30S, Q37L, R38Q, T74S
notes: as for B1
B7: 28C2 (antibody, V domains shown)
VH: QVTLKASGPGIVQPSQTLSLTCSFSGFSLNTSGMGVGWIRQPSGKGLEWLAHIWWDDDKRYNPALKSRLTISKDTSNNQIFLKIASVDTADTATYYCARSHYYGTFYFDYWGQGTTLTVSS
VL: DVQITQSPSYLAASPGETITINCRASKSISKYLAWYQEKPGTTYKLLIYSGSTLQSGIPSRFSGSGSGTDFTLTISSLEPEDFAMYYCQQHIEYPWTFGGGTKLEIKR
notes: as for B1
B8: 9D6 (antibody, V domains shown)
VH: QVTLKESGPGILQPSQTLSLTCSFSGFSLSTSGMGVGWIRQSSGKGLEWLAHIWWDDDKRYNPTLKSRLTISKDTSNNQVFLKIANMDTADIATYYCARSHYNGTFYFDFWGQGITLTVSS
VL: B7 VL with T42K, Y44N, S77T
notes: as for B1
B9: 34D10 (antibody, V domains shown)
VH: EVKLVESGGGLVKPGGSLKLSCAASGFTFSAYAMSWVRQTPEKRLEWVASISSGGTTYYPDSVKRRFTISRDNARNILYLQMSSLRSEDTAMYYCTRGGDYGYALDYWGQGTSVTVSS
VL: ENVLTQSPAIMSASLGEKVTMSCRASSSVNYMYWYQQKSDASPKLWIYYTSNLAPGVPARFSGSGSGNSYSLTISSMEGEDAATYYCQQFSSSPWTFGGGTKLEIKR
notes: as for B1
B10: 4B11 (antibody, V domains shown)
VH: B9 VH with A31S, E46A, T56N, T57I, Y59F, R65G, N73D, S83R, T96A, L105M
VL: B9 VL with S22N, Y48F, T101S
notes: as for B1
B11: 36A8 (antibody, V domains shown)
VH: B9 VH with K3R, A31T, S52N, S53G, T56S, R65G, S83R, T96A
VL: B9 VL with S22N, Y48F, T101S
notes: as for B1

Substitutions are numbered along the chain they refer to.

One assay addresses T1, GPIIb/IIIa on human platelets (human, UniProt P08514 32-1039; P05106 27-788).
T1 construct: Native receptor on gel-purified human platelets or on platelets in citrated human whole blood; also called GPIIb/IIIa receptor
Kind of assay: flow cytometry on platelets, hybridoma supernatant (signal higher than in ELISA).
For B1, the binding result is on record as “binds”.

Regarding B2, the binding result is “binds”.

The next assay has as its target T2, GPIIb/IIIa nanodiscs (recombinant biotinylated, HPC4-tagged GPIIb/IIIa) (human, UniProt P08514 32-1039; P05106 27-788).
T2 construct: Transiently expressed in HEK293 cells, purified, and put into nanodiscs with scaffold protein and phospholipids; It carries a tag for in vivo biotinylation and an HPC4 tag; also called GPIIb/IIIa receptor; biotinylated GPIIb/IIIa receptor
Kind of assay: SPR, biotinylated GPIIb/IIIa nanodiscs on a streptavidin chip.
Take B3: the binding result was “no binding”.

The target of the next assay is T1, GPIIb/IIIa on human platelets. Kind of assay: flow cytometry, protein spiked into citrated human whole blood, FITC anti-FVII on CD42b-gated platelets.
Take B3: the binding result was “no binding”.

A further assay concerns the target T3, human GPIIb/IIIa (Calbiochem Cat No. 528240) (human, UniProt P08514 32-1039; P05106 27-788).
T3 construct: Bought purified protein coated on ELISA plates; How the α/β subunit specificity ELISA was set up is not described; also called αIIbβ3; glycoprotein IIb/IIIa
Kind of assay: ELISA, hybridoma supernatant.
With B4, the binding result was “binds”.

B5: the binding result is “binds”.

B6: the binding result is given as “binds”.

For the molecule B1, the binding result is “binds”.

In the case of B7, the binding result was “binds”.

B8: the binding result is recorded as “binds”.

For B2, the binding result is given as “binds”.

Turning to B9, the binding result is listed as “binds”.

In the case of B10, the binding result is given as “binds”.

Turning to B11, the binding result is recorded as “binds”.
